Test [1] has as its target KcsA (pT7-KcsA construct, N-terminal His-tag) in native SMA nanodiscs (Streptomyces lividans) (UniProt P0A334). The test is described as follows: mass photometry + other: lipid-to-protein ratio.
Test [2] deals with E. coli outer membrane protein F (OmpF) (E. coli) (UniProt P02931). The test is described as follows: native MS.
Test [3] shares this target. The test is described as follows: mass photometry.
Test [4] has as its target potassium channel KcsA from Streptomyces lividans (pET-28a construct, N-terminal His-tag) (Streptomyces lividans) (UniProt P0A334). Kind of test: mass photometry.
For test [5] the target is unchanged. Kind of test: mass photometry. This is another data set of the same source.
In test [6] the target is E. coli bo3 oxidase (E. coli) (UniProt P0ABJ3). The test is described as follows: mass photometry.
Test [7] has the same target. The test is described as follows: SEC-MALS.

Read-outs that look alike come from different tables or passages of the source.

“KcsA (pT7-KcsA construct, N-terminal His-tag) in native SMA nanodiscs (from UniProt P0A334 1-160) (natural protein)”: the stoichiometry N in test [1] is 8.

As for “E. coli outer membrane protein F (OmpF) (from UniProt P02931 23-362) (natural protein)”, the stoichiometry N in test [2] and in test [3] was 3 throughout.

Regarding “potassium channel KcsA from Streptomyces lividans (pET-28a construct, N-terminal His-tag) (from UniProt P0A334 1-160) (natural protein)”, the stoichiometry N in test [4] and in test [5] was 4 in each case.

In test [6], “E. coli bo3 oxidase (from UniProt P0ABJ3 1-204) (complex)” displayed a relative abundance of dimers of 20%, a relative abundance of monomers of 80% and a stoichiometry N of 2. In test [7], the relative abundance of dimers worked out at 28%, the relative abundance of monomers came out at 72% and the stoichiometry N was 2.

These data come from publication doi:10.1101/2020.02.28.969287.
